This is an account of results in the supplement of paper PMC12636428.

The subject of the series is Saccharomyces cerevisiae. In words: transcriptional activation domain activity (GFP:mCherry ratio, weighted mean of sorted bins, harmonized to initial dataset scale) (arbitrary fluorescence ratio units); higher = stronger transcriptional activation. To be noted: beta-estradiol 1 µM; induction time 4 h. A digest of the protocol: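 Protein tiles carrying barcodes and fused to an estradiol-inducible synthetic transcription factor were placed at the URA3 locus of yeast diploids with a GFP reporter. Following 4 hours at 30 °C in SC with 1 uM beta-estradiol, cells were sorted into 8 GFP:mCherry bins, barcodes were sequenced, and tiles with fewer than 50 reads were discarded. Activation activity is given as the read-weighted mean of bin median fluorescence, averaged across barcodes and linearly mapped to the initial dataset scale.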

On to “LFATLLKLRVDQLLIMMDPTDLIRSILLSNENHQVLSALDFCWTLMHSVFPLL”, for which the “transcriptional activation domain activity” value turned out to be 78100.
Next, “FWFPNYIFGALSFFSWMSWIAPTNINLANITGSSTGLGLNPFSSFDWNVWTFN”: 51400; “AVGRGEFAQPVLVPGGGVAIVAIGRARWIRDEEKNGERRYRVGVSWSADHRVV”: 40100; “MCYIIIVRWKRVWISCSCLAVIPVCPSIIPLLSILILSSLFFPFNPIFPIHGI”: 34100.
Consider “STIHNLAELVFLEELCGFCCFSMRFVVFLDLFGTIILPATCVYIGYLIYVIAT”, for which the “transcriptional activation domain activity” value was 44600.
Next, “LMDSGGPDVRPPPKRARKAINCEPCRNSKLKCDRNRPCSSCVLRGTTSQCYQG”: 43700.
Next, “LWYIGSFVTNGLVNVVGVWKICKLWSIWVRVAFTYMFMCFILFRALALHRIFI”: 59200.
The same measure for “MWVGELLGYYCTMALSKALGCKVRLLRAWAEMHNICGFYSRDSIPCRMYASRV”: 61800; for “GHVRSHNDERPFACGWAGCERAFARQHDCRRHEQRHARDLEREREREFACAGC”: 38100; for “FGSWGRGLCPLVFREAGWLELWGCVCVGGTLVWCLPYGILPMSYWRIWGLLRW”: 74600.
Regarding “NGGCDYVFSMYVLGAGLWLFIFFLPPIIFSIVCLCYLALIWAVSWVLLWCLVF”, the “transcriptional activation domain activity” value was 49600.
Next, “PHLFVNQGKLESYAGVVTRVVDLVLGIYVIDDCHMLILTYWPLLSPLTVLRTG”: 51000; “SNEGFDYDVELKKKNIGLILAFKEHECDSDQLVAYLVYQRMKRIVWLHKLCVV”: 64600; “MPTPSFFCFFLLFLSPMLNMRGDTFTAPLIFSFFVFFFFFFMLSLHFLLVFFS”: 46400.
Next, “GKPAASAFGGGSSAFGAGSGAFGGGGGGGPSAFGAPASKPSAFGTGGAFGGGA”: 51100.
As for “EAPEPAADAPPPRRVRMSKPKVKTGCRECKTRRVKCDEARPACTRCTRGRREC”, the “transcriptional activation domain activity” value is 36800.
Next, “HSSSPEDQERKRSKSRLRDAAAAGAAALGVNEYENRKDRKKRERRRERSERRY”: 24200; “MVHIVVVLCIVFCLLLCFKRRAQQLSSYCHASLRYFNLPPNFHQYYEQRFILV”: 78400; “VLVVVVALPVVAVMVIMVVVVVVVVVVAIIGGGGWWMWLGLWLRLLIEMDVGA”: 32900.
The same measure for “ERDRKEQNGGGEGGRGGRHKKGARGAERRGHGSGSEGGGKAGANPERRTGGRG”: less than 6570.
Next, “GIPVKAYPPNGVYPFSGLSCYAMIVSFLHSELDMVYMTFRELYARYFHHLHTI”: 70500; “AYNLILIIRWCLFIITIYYCYTLVLYHHYKVNFKQLIRKSMSPIKNNNLIHQF”: 65300.
As for “RRKRRERREEERGRDKQGEEGGGRKGGGNRKEGGGGRRGRRSRGGGGGGAEGA”, the “transcriptional activation domain activity” value was 27800.
Next, “MCIFFKGQYPIYLAFVRPFASLFFRVPLFRLFFGIFCAWVLCFLFLLLLSFSC”: 43600; “ELKEGDPKVCAGKAVNEKGEVVDKDGNVIGKVDVVPGEAAFEAMKALKERLGE”: less than 6570.
Next, “DDAAADLQEAQAGASKKNRKRNRKKNAQDGPAEEATPSKGARQGKKGKGWRET”: 12000; “MSDLPLFFYFYFITVCITSWRFTCILAPGLFFSFYFFLCFFCLFSLLSLHDLM”: 20700; “ILQNDLKFDQILESSYNNSNHTVSKFKVSHYVEESGLLDILMQRYGLTAEDFE”: 57600.
As for “MPSAATRPCVQCAAAASRYNCPQCRASTCSAPCSKAHKLRAHGSDAAAGPSSA”, the “transcriptional activation domain activity” value stood at 47500.
Next, “ADSGDEYVQDRRDGPAKGGKAPRREKDGRDEEGGRKKAAKKRKRKVQAQPEID”: 30100; “MASGILGLLVVNFVLLLICFIAYSSQIFVIWPWYGRTVSVELISLLLPFNILV”: 42800; “DKKNVDINEFLLDESVSNLFTTRQIDLFKKNVNLYSPLFQNQKDAVSSTSLTP”: 81800.
Next, “EPIQNEIAKLFHSGGDSVVDILFSQTSATEFVTVGGTGNVYHWDMEYSFSRND”: 67800; “GSAAKAGAGTGAGKAAAGGKTSAAATARGGGGAGAGGGKGAGGASAKAGTGGG”: 31600; “MHVYVYIIIYNNIWYCMVYSINIHIFVNNYYLLRLLAIYYSYCFIVLLFIMFF”: 43500.
The same measure for “MINCYAEVALFECCVMFILSPLPPFSLSPQYIFYTLLLYLHYQYFVYRNCALL”: 71500; for “RDANQCLELYPDIRILLVRLLEYPELMVITPIRMAIRCGLLYFSHLGSDRPQA”: 58800.
Take “SNHNNDNDNSNNGDGNNNNTISELVCFDESIADLYPVEIDSPYLITLAYLDKL”: the “transcriptional activation domain activity” value came to 71900.
Next, “MMKKKNWSYVVFWRGLPFFFFFFFFFFGEHFVLIFTSFVLFLLSLLCAGCVWV”: 25000; “MSAFSGEDAPSPEGLDRKRKRQRTALSCTECKRRKIKCDRSQPCSSCIRRKVP”: 42300; “RDESLRTKDKSVSRSRSRSRARDEETDDRRERSRSADRESRREGRGRSATPQG”: 34800.
Next, “LQCEGFTLRVPFVVDDTFYALMRCFDFFTIDEDPELWRLWCSLLRYALRLQNG”: 40200.
With “EVMKITPVQKQTRAGQRTRFKAFVAIGDSNGHVGLGVKCAKEVASAIRGAIIL”, the “transcriptional activation domain activity” value stood at 61100.
Next, “PKKLQEDTELETEQENQMLNQVGNINYTHDFSLSHEIDDLIRELFGVGTPQKL”: 65300; “EESAEEKQEEEDSADAKKQKTNGDAEEIEEAGENDEEKAEESTSKKKGRPAKN”: 25100.
Consider “SQVIKILTLLFFFLNLLFFVLICAATVARYCMFPQLWPIMLNHPSQSLFIGAF”, for which the “transcriptional activation domain activity” value stood at 60600.
As for “NSTIHNLLELVLLPELCGFCCFSMRFVVMIDLIGTLTLPSSVVYLVYLIYVVI”, the “transcriptional activation domain activity” value stood at 56700.
The same measure for “LNMLGLALAASGHFPYAVKYDGAIVVANFNMAILMRNEVFGRLLYLLVNTLFA”: 71600; for “VIYRIDKDELTTGMLLVRNNLVELMAASTGPAAHLRVLVVDLVAPSFRSIPRG”: 44400; for “APPPPPPPPPPAPPARSGAPPPPPPPPPPPMGGAPPPPPPPMGGPPPPPPPPP”: 36400.
The same measure for “AAATTADAKPASSAADKASSSVAAASAGQATASTDSGTAKAEKKKKGKAAAVA”: 8920; for “AAAVAVAREHVQKEVVATVTVAKEHVQKEEVVAAVAVAREHAQKEVVATVAVA”: 56000; for “DSNILAILPAVVYLQHSCYCLYFFYLYCFCLFLMSIDVAILYCLLYKIIPLFH”: 43400.
Next, “ELKKFADGVDRERKERAKSANGCCGFCGREEEALPKCGRCKETRYCSPSVRAC”: 33000.
Consider “EWTRLVQNPAASPRLLNGFIRQMLADLPTTSILVLVRTALEVSVESYAQAGST”, for which the “transcriptional activation domain activity” value worked out at 58700.
Next, “VQVVGVLCVGWSLKVWTMHLLGDGGVAVLVKGRTRTVPMAWEEWGAVVEVMRG”: 40300; “ATGLAWGVWGKKGAPRFRGSCAERFDTLSSTEWKGSRLVRLVARFDNTVRSVP”: 45600; “CFFLFYIIHLPLLFIHITKSMYVLIVSRFVSSFPVSVGWAVGRAHGFGPLFAQ”: 51900.
For “FRLAFMLICVDVFLALFHILDYVLYIPSRVCTFSAWGTLTCELMTIFLNVTIA”, the “transcriptional activation domain activity” value was 52500.
In the case of “VLHVLILHLPCCPSPNFLLAPDTTLPLSTLLWYEFSRTLFPVLLFYLPAFLIS”, the “transcriptional activation domain activity” value is 72100.
Next, “AKSLRLTIDEVKMLHRPVIWYLIVMLVDTLTATYLQYNGFLLHRTHLRETLSV”: 44200.
The same measure for “PTWGLVLRLGCGIVYIVIFLVYVGLGGVFPGRYTYWGLSADNAGIMVYVLLCV”: 60400; for “MVYQGGVTFLCNFYILFPFFPFFFCFCKVSFLFCFCIFLFFCSWDGGLFLFLF”: 62700; for “KIHIVNMAQVIVLCIHRFLYGIIPLFEISTCIYFPLLVSLWHITYILFYIVMF”: 55200.
The same measure for “GSVKKKLASSSRTGQACDRCKVRKIRCDPRPEGCSPCAQNRTPCKTTDRITGR”: 41900; for “MADAVAEGTAKLQLDEETGEMVSKGELKKRLQKRAKKAAQAKAKADAPAPSAA”: less than 6570.
For the sequence “KTKEGAAKNTKKSGERGKEKGLAGAKSKKSPINNSVKGKKSPSTKKTVKKAGK”, the “transcriptional activation domain activity” value was found to be 31600.
The same measure for “LLYALMNFSRIFSSGHSFGRKIIMFFEFVYLLLNFLFGFVSLGHFYFAFHFLI”: 37000; for “MNDKVVSCETRRRRKAREGREKRGKGEERGEKREGRRERGEREREKRKERGRE”: 25300.
Next, “APAAADEEQEGESKNKKKKKKKGAKKAEADEEAVEAAAPAKGKKKGGAPIAAL”: 54700.
On to “KGAPKKSKGEEKEEVVAEETKVEVKVVKETKKVDKAAKAETKKDEVKKVKKVE”, for which the “transcriptional activation domain activity” value stood at 46000.
For the sequence “GGLSELKDSLDDSQVQYAYARVEYANDSESTRVKFVLVIWIGESTKVMRKARV”, the “transcriptional activation domain activity” value was determined as 46700.
On to “MIIIIIIIMGNRFMMMSFLFAFFSLFFFLMKFFLSFSFFLFLSFLLIMFAISL”, for which the “transcriptional activation domain activity” value stood at 62100.
Next, “LPDLQWLVKFLVVAAHETGKNIVCRRAPGNLLSGNLVTLVSNVVLQRSPKRSY”: 47900.
